Patent US9526791B2, “Weakly acidic pH-responsive peptide and liposome containing same” (Taiho Pharmaceutical Co., Ltd., priority 2012, dated 2016)
Like-named read-outs stand apart in the source and are kept apart here.

Tests used:
[1] = assay type: physicochemical; conditions: for Leakage of calcein (in words): pH 6.5 (pH changed from 7.4 to 6.5); for Calcein leakage rate (%): calcein-encapsulated liposome, 37° C., 10 minutes
Protocol: • (1) After a peptide-containing lipid membrane was prepared as in Example 4, a calcein (Mw: 622.55) 30-mM solution was added, and calcein-encapsulated liposome 1 was prepared as in Example 4. Unencapsulated calcein was removed by gel filtration (Sephadex G50).
To measure the leakage of the encapsulated calcein from the liposomes, the liposomes were diluted and suspended in buffers having different pHs, and then incubated at 37° C. for 10 minutes. The fluorescence (λex: 488 nm, λem: 517 nm) of the leaked calcein was measured by a plate reader (Infinite M200, produced by Tecan). The fluorescence of the leaked calcein when the liposomes were mixed with 1% Triton-X100 was regarded as complete leakage. The leakage rate was calculated by the following formula. […] Leakage rate(%)=(Fsample−FpH 7.4)/(Ftriton−FpH 7.4)×100
Fsample Fluorescence of calcein leaked from the liposomes at each pH
FpH 7.4: Fluorescence of calcein leaked from the liposomes at a pH of 7.4
Ftriton: Fluorescence of calcein when the liposomes were mixed with 1% Triton-X100.
Calcein was encapsulated in liposome 1 obtained in Example 4, and liposomes 2 and 3 obtained in Example 5, and pH responsiveness was examined as in Test Example 1.
The calcein leakage rate of the calcein-encapsulated liposomes obtained in Examples 4, 6, and 7, and Comparative Examples 4 to 6 at a pH of 7.4 and a pH of 6.5 was calculated as in Test Example 1.

[2] = CD spectra of peptide alone or peptide-introduced liposome under different pH conditions; assay type: physicochemical; conditions: PBS (−), peptide concentration 20 μM
Protocol: Peptide compound 1 obtained in Example 1 alone and a peptide-introduced liposome obtained according to Example 4 (each having a peptide concentration of 20 μM) were suspended in PBS (−) with different pHs, and CD (circular dichroism) spectra were recorded on a J-720WI spectropolarimeter (produced by JASCO Corporation).
The “α-helix” represents an α-helix structure, and the “random coil structure” represents a state in which a clear secondary structure is not formed.

[3] = Observation of liposomes into which comparative compound 3 was introduced (aggregation); assay type: physicochemical; conditions: pH 6.5 or less
Protocol: Comparative liposome 3 into which comparative compound 3 obtained in Comparative Example 3 had been introduced was produced according to the method described in Example 4, and calcein-encapsulated comparative liposome 3 was prepared by the same production method as in Test Example 1.
Thus, the pH-responsiveness was insufficient.

Row | Sequence | Leakage of calcein (in words) [1] | Calcein leakage rate (%) ([1]; pH 6.5) | Calcein leakage rate (%) ([1]; pH 7.4) | Secondary structure from CD spectrum ([2]; as the pH was reduced) | Secondary structure from CD spectrum ([2]; pH 7.4) | Calcein fluorescence on attempted encapsulation (liposome stability) ([1]; pH 7.4) | Aggregation of liposomes [3]
1 | HGHGGGGGGGGGAHALLAHAALAH [compound 2] | remarkably reduced | 30 | 0 |  |  |  | 
2 | EGEGLALLAHALLAHAALAHAALA [Peptide compound 3] |  | 65 | 0 |  |  |  | 
3 | HGHGLALLAHALLAHAALAHAALA [Peptide compound 1] |  | 100 | 0 | sequentially converted into a random coil structure | α-helix |  | 
4 | GHHGLALLHALHLAAAALHAAALA [Peptide compound 2] |  | 90 | 0 |  |  |  | 
5 | HHGGLLLLHHHAAAAALLLAAAAA [compound 1] | remarkably reduced | 30 | 0 |  |  |  | 
6 | HGHGLALLAHALLAHAAAAL [compound 3] |  |  |  |  |  | fluorescence intensity at the same level as that when Triton treatment was performed | remarkably aggregated
